Laboratory results from patent publication US8642284B1, “Methods for identifying agents that alter NAD-dependent deacetylation activity of a SIR2 protein” (Massachusetts Institute of Technology, priority 1999, dated 2014).

Each molecule was assayed on histone H2B (assay: ADP-ribosylation activity of wild type and mutant recombinant mSir2α proteins on histones). Details: 10 μg recombinant protein; H2B radioactivity, wild type = 100%.
Assay type: biochemical, calf
Method: Site-directed mutagenesis of mSIR2α core domain was performed with the GeneEditor™ system (Promega, Madison, Wis.) according to the procedure provided by the manufacturer. The mutant recombinant proteins were prepared in the same way as described above.
The typical reaction was performed in 50 or 100 μl of the buffer containing 5 mM Tris-HCl [pH8.0 or 9.0], 4 mM MgCl2, 0.2 mM DTT, 1 μM cold β-NAD^+ (SIGMA®) and 8 μCi nicotinamide adenine dinucleotide 5′[α-^32P]triphosphate (NAD) as a donor of ADP-ribose (˜1000 Ci/mmol, Amersham Pharmacia Biotech). To check the sensitivity to poly- or mono-ADP-ribosylation inhibitors, 3-aminobenzamide (ICN Pharmaceuticals, CA), benzamide, novobiocin and coumermycin A1 (SIGMA®) were added to the reactions prior to adding Sir2 proteins, respectively. The wild type or mutant recombinant proteins (0.5-1 μg for ySir2p and 10 μg of mSir2α) were added with 4 μg of each histone purchased from Roche Molecular Biochemicals (Indianapolis, Ind.). For the peptide experiments, 5-10 μg of unacetylated or acetylated N-terminal tail peptides (amino acids 1-20) of H3 and H4 purchased from Upstate Biotechnology™ (Lake Placid, N.Y.) were used as substrates of the yeast and mouse Sir2 recombinant proteins.
To analyze histone modification, 25 μl of 100% trichloroacetic acid (TCA) solution was mixed to the reaction mixture and left on ice for 15 min. The protein precipitates were centrifuged at 4° C. and washed with 5 or 20% TCA solution twice. The pellets were dissolved in 15 μl of Leammli's sample buffer and boiled for 1.5 min. The proteins were electrophoresed in a 10-20% gradient SDS-PAGE gel. The gel was stained with COOMASSIE® Brilliant Blue R-250 (GibcoBRL Life Technologies™, Frederick, Md.) to check equal loading of histones, dried, and exposed to KODAK® X-OMAT film.
Aliquots of recombinant protein (10 μg) of the wild type recombinant mSir2α (WT), the pET control pET, and the mutant proteins (G253A, G255A, S257A, I262A, F265A, R266A, G270A, P285A, T336A, H355A) were incubated with H2B or H3. […] All of the mutations of highly conserved residues dramatically affected the mono-ADP-ribosylation activity of mSir2α (FIG. 6B). The results were similar using H2B or H3.
The radioactivity of H2B modified by the wild type is assigned to 100% and other data were normalized according to the wild type activity and blots quantitated by Phosphorimaging. The averages and the standard deviations were calculated from two independent experiments. In the core domain of ySir2p, mutations on highly conserved residues also affected the mono-ADP-ribosylation activity. Therefore, the core domain of Sir2 proteins contain the catalytic activity of mono-ADP-ribosylation and the evolutionarily conserved residues in the core domain are essential for this activity.

| Molecule | mono-ADP-ribosylation activity compared to the wild type activity |
| --- | --- |
| P285A: recombinant mSir2α core domain mutant, residue changed to alanine (protein, left off: small tags and cut ends, recombinant mSir2α core domain mutant, residue changed to alanine) MADEVALALQAAGSPSAAAAMEAASQPADEPLRKRPRRDGPGLGRSPGEPSAAVAPAAAGCEAASAAAPAALWREAAGAAASAEREAPATAVAGDGDNGSGLRREPRAADDFDDDEGEEEDEAAAAAAAAAIGYRDNLLLTDGLLTNGFHSCESDDDDRTSHASSSDWTPRPRIGPYTFVQQHLMIGTDPRTILKDLLPETIPPPELDDMTLWQIVINILSEPPKRKKRKDINTIEDAVKLLQECKKIIVLTGAGVSVSCGIPDFRSRDGIYARLAVDFPDLPDAQAMFDIEYFRKDPRPFFKFAKEIYPGQFQPSLCHKFIALSDKEGKLLRNYTQNIDTLEQVAGIQRILQCHGSFATASCLICKYKVDCEAVRGDIFNQVVPRCPRCPADEPLAIMKPEIVFFGENLPEQFHRAMKYDKDEVDLLIVIGSSLKVRPVALIPSSIPHEVPQILINREPLPHLHFDVELLGDCDVIINELCHRLGGEYAKLCCNPVKLSEITEKPPRPQKELVHLSELPPTPLHISEDSSSPERTVPQDSSVIATLVDQATNNNVNDLEVSESSCVEEKPQEVQTSRNVENINVENPDFKAVGSSTADKNERTSVAETVRKCWPNRLAKEQISKRLEGNQYLFVPPNRYIFHGAEVYSDSEDDVLSSSSCGSNSDSGTCQSPSLEEPLEDESEIEEFYNGLEDDTERPECAGGSGFGADGGDQEVVNEAIATRQELTDVNYPSDKS | 5% |
| S257A: recombinant mSir2α core domain mutant, residue changed to alanine (protein, left off: small tags and cut ends, recombinant mSir2α core domain mutant, residue changed to alanine) MADEVALALQAAGSPSAAAAMEAASQPADEPLRKRPRRDGPGLGRSPGEPSAAVAPAAAGCEAASAAAPAALWREAAGAAASAEREAPATAVAGDGDNGSGLRREPRAADDFDDDEGEEEDEAAAAAAAAAIGYRDNLLLTDGLLTNGFHSCESDDDDRTSHASSSDWTPRPRIGPYTFVQQHLMIGTDPRTILKDLLPETIPPPELDDMTLWQIVINILSEPPKRKKRKDINTIEDAVKLLQECKKIIVLTGAGVAVSCGIPDFRSRDGIYARLAVDFPDLPDPQAMFDIEYFRKDPRPFFKFAKEIYPGQFQPSLCHKFIALSDKEGKLLRNYTQNIDTLEQVAGIQRILQCHGSFATASCLICKYKVDCEAVRGDIFNQVVPRCPRCPADEPLAIMKPEIVFFGENLPEQFHRAMKYDKDEVDLLIVIGSSLKVRPVALIPSSIPHEVPQILINREPLPHLHFDVELLGDCDVIINELCHRLGGEYAKLCCNPVKLSEITEKPPRPQKELVHLSELPPTPLHISEDSSSPERTVPQDSSVIATLVDQATNNNVNDLEVSESSCVEEKPQEVQTSRNVENINVENPDFKAVGSSTADKNERTSVAETVRKCWPNRLAKEQISKRLEGNQYLFVPPNRYIFHGAEVYSDSEDDVLSSSSCGSNSDSGTCQSPSLEEPLEDESEIEEFYNGLEDDTERPECAGGSGFGADGGDQEVVNEAIATRQELTDVNYPSDKS | completely abolished the activity |
| I262A: recombinant mSir2α core domain mutant, residue changed to alanine (protein, left off: small tags and cut ends, recombinant mSir2α core domain mutant, residue changed to alanine) MADEVALALQAAGSPSAAAAMEAASQPADEPLRKRPRRDGPGLGRSPGEPSAAVAPAAAGCEAASAAAPAALWREAAGAAASAEREAPATAVAGDGDNGSGLRREPRAADDFDDDEGEEEDEAAAAAAAAAIGYRDNLLLTDGLLTNGFHSCESDDDDRTSHASSSDWTPRPRIGPYTFVQQHLMIGTDPRTILKDLLPETIPPPELDDMTLWQIVINILSEPPKRKKRKDINTIEDAVKLLQECKKIIVLTGAGVSVSCGAPDFRSRDGIYARLAVDFPDLPDPQAMFDIEYFRKDPRPFFKFAKEIYPGQFQPSLCHKFIALSDKEGKLLRNYTQNIDTLEQVAGIQRILQCHGSFATASCLICKYKVDCEAVRGDIFNQVVPRCPRCPADEPLAIMKPEIVFFGENLPEQFHRAMKYDKDEVDLLIVIGSSLKVRPVALIPSSIPHEVPQILINREPLPHLHFDVELLGDCDVIINELCHRLGGEYAKLCCNPVKLSEITEKPPRPQKELVHLSELPPTPLHISEDSSSPERTVPQDSSVIATLVDQATNNNVNDLEVSESSCVEEKPQEVQTSRNVENINVENPDFKAVGSSTADKNERTSVAETVRKCWPNRLAKEQISKRLEGNQYLFVPPNRYIFHGAEVYSDSEDDVLSSSSCGSNSDSGTCQSPSLEEPLEDESEIEEFYNGLEDDTERPECAGGSGFGADGGDQEVVNEAIATRQELTDVNYPSDKS | completely abolished the activity |
| G255A: recombinant mSir2α core domain mutant, residue changed to alanine (protein, left off: small tags and cut ends, recombinant mSir2α core domain mutant, residue changed to alanine) MADEVALALQAAGSPSAAAAMEAASQPADEPLRKRPRRDGPGLGRSPGEPSAAVAPAAAGCEAASAAAPAALWREAAGAAASAEREAPATAVAGDGDNGSGLRREPRAADDFDDDEGEEEDEAAAAAAAAAIGYRDNLLLTDGLLTNGFHSCESDDDDRTSHASSSDWTPRPRIGPYTFVQQHLMIGTDPRTILKDLLPETIPPPELDDMTLWQIVINILSEPPKRKKRKDINTIEDAVKLLQECKKIIVLTGAAVSVSCGIPDFRSRDGIYARLAVDFPDLPDPQAMFDIEYFRKDPRPFFKFAKEIYPGQFQPSLCHKFIALSDKEGKLLRNYTQNIDTLEQVAGIQRILQCHGSFATASCLICKYKVDCEAVRGDIFNQVVPRCPRCPADEPLAIMKPEIVFFGENLPEQFHRAMKYDKDEVDLLIVIGSSLKVRPVALIPSSIPHEVPQILINREPLPHLHFDVELLGDCDVIINELCHRLGGEYAKLCCNPVKLSEITEKPPRPQKELVHLSELPPTPLHISEDSSSPERTVPQDSSVIATLVDQATNNNVNDLEVSESSCVEEKPQEVQTSRNVENINVENPDFKAVGSSTADKNERTSVAETVRKCWPNRLAKEQISKRLEGNQYLFVPPNRYIFHGAEVYSDSEDDVLSSSSCGSNSDSGTCQSPSLEEPLEDESEIEEFYNGLEDDTERPECAGGSGFGADGGDQEVVNEAIATRQELTDVNYPSDKS | completely abolished the activity |
| G253A: recombinant mSir2α core domain mutant, glycine 253 changed to alanine (protein, left off: small tags and cut ends, recombinant mSir2α core domain mutant, glycine 253 changed to alanine) MADEVALALQAAGSPSAAAAMEAASQPADEPLRKRPRRDGPGLGRSPGEPSAAVAPAAAGCEAASAAAPAALWREAAGAAASAEREAPATAVAGDGDNGSGLRREPRAADDFDDDEGEEEDEAAAAAAAAAIGYRDNLLLTDGLLTNGFHSCESDDDDRTSHASSSDWTPRPRIGPYTFVQQHLMIGTDPRTILKDLLPETIPPPELDDMTLWQIVINILSEPPKRKKRKDINTIEDAVKLLQECKKIIVLTAAGVSVSCGIPDFRSRDGIYARLAVDFPDLPDPQAMFDIEYFRKDPRPFFKFAKEIYPGQFQPSLCHKFIALSDKEGKLLRNYTQNIDTLEQVAGIQRILQCHGSFATASCLICKYKVDCEAVRGDIFNQVVPRCPRCPADEPLAIMKPEIVFFGENLPEQFHRAMKYDKDEVDLLIVIGSSLKVRPVALIPSSIPHEVPQILINREPLPHLHFDVELLGDCDVIINELCHRLGGEYAKLCCNPVKLSEITEKPPRPQKELVHLSELPPTPLHISEDSSSPERTVPQDSSVIATLVDQATNNNVNDLEVSESSCVEEKPQEVQTSRNVENINVENPDFKAVGSSTADKNERTSVAETVRKCWPNRLAKEQISKRLEGNQYLFVPPNRYIFHGAEVYSDSEDDVLSSSSCGSNSDSGTCQSPSLEEPLEDESEIEEFYNGLEDDTERPECAGGSGFGADGGDQEVVNEAIATRQELTDVNYPSDKS | completely abolished the activity |
